Reference: patent US20210221878A1

How the values were obtained:
[1] = biological target: αSyn WT PFF (preformed fibrils of recombinant wild-type human α-synuclein) (human) (UniProt P37840); test: ratio of monomer to PFF binding potency, solution competition ELISA
[2] = biological target: full-length human recombinant wild-type α-synuclein monomer (human) (UniProt P37840); test: solution competition ELISA, free antibody captured on PFF plate; binding potency, monomer (ng/ml)
[3] = biological target: αSyn WT PFF (preformed fibrils of recombinant wild-type human α-synuclein) (human) (UniProt P37840); test: solution competition ELISA, free antibody captured on PFF plate; binding potency, PFF (ng/ml)

Row | Substance | Mono/PFF Ratio [1] | EC50 [2] | EC50 [3]
1 | LB509 (antibody) | 38 | 0.062 µg/mL | 0.0016 µg/mL
2 | MJFR1 (antibody) | 0.27 | 0.008 µg/mL | 0.0292 µg/mL
3 | MJFR14642 (antibody) | 7230 | 3.66 µg/mL | 0.00051 µg/mL
4 | Syn303 (antibody) | 0.47 | 0.0512 µg/mL | 0.109 µg/mL
